Laboratory results reported in PMC4812828 (Nature structural & molecular biology, 2016).

Target: T1, Mcm5 (S. cerevisiae, UniProt P29496 1-775)
T1 sequence: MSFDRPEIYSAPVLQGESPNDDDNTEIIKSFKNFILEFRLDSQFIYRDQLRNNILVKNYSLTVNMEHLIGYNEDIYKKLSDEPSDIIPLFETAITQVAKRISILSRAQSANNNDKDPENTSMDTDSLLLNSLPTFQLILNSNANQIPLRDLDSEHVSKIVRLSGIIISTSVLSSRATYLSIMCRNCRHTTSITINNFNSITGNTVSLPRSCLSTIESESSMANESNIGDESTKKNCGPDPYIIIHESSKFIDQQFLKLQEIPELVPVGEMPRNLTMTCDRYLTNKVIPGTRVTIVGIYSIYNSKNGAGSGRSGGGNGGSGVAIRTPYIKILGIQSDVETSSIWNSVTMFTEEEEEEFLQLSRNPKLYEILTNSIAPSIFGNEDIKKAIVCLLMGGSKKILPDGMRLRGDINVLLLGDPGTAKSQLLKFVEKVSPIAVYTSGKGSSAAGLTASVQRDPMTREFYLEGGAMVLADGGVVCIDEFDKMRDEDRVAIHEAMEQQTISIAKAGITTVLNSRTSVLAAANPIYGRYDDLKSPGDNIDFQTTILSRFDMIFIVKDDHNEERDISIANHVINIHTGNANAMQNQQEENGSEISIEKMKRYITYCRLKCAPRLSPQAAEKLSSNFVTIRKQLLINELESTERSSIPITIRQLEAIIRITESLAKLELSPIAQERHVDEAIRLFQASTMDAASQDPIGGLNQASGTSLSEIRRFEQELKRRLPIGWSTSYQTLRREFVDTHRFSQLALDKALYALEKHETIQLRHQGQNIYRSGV
Test: cryo-EM structure

B1: Psf3 (natural protein)
chain: MGYYDIDDVLADGTEFPCKFQYDIPGLGYLENNPGRPITKNTKLSLPLWLARILAIVGGDEALVDEEPVPFVELLPPDMFSTKVMNAIKTDPVALDLHSINSHFFSLAIKWIMLFSEKELANVVSELLLQRAQELNHHASSLSIDLNADSTGKNSANTNIATSTFLLKLEEMEKEIYKKSHESYKDTKRWMFKK
B1: binds.
